{"source": "paper PMC2995059", "binders": {"B1": {"name": "endogenous Drosha (enzyme)", "chain": "MMQGNTCHRMSFHPGRGCPRGRGGHGARPSAPSFRPQNLRLLHPQQPPVQYQYEPPSAPSTTFSNSPAPNFLPPRPDFVPFPPPMPPSAQGPLPPCPIRPPFPNHQMRHPFPVPPCFPPMPPPMPCPNNPPVPGAPPGQGTFPFMMPPPSMPHPPPPPVMPQQVNYQYPPGYSHHNFPPPSFNSFQNNPSSFLPSANNSSSPHFRHLPPYPLPKAPSERRSPERLKHYDDHRHRDHSHGRGERHRSLDRRERGRSPDRRRQDSRYRSDYDRGRTPSRHRSYERSRERERERHRHRDNRRSPSLERSYKKEYKRSGRSYGLSVVPEPAGCTPELPGEIIKNTDSWAPPLEIVNHRSPSREKKRARWEEEKDRWSDNQSSGKDKNYTSIKEKEPEETMPDKNEEEEEELLKPVWIRCTHSENYYSSDPMDQVGDSTVVGTSRLRDLYDKFEEELGSRQEKAKAARPPWEPPKTKLDEDLESSSESECESDEDSTCSSSSDSEVFDVIAEIKRKKAHPDRLHDELWYNDPGQMNDGPLCKCSAKARRTGIRHSIYPGEEAIKPCRPMTNNAGRLFHYRITVSPPTNFLTDRPTVIEYDDHEYIFEGFSMFAHAPLTNIPLCKVIRFNIDYTIHFIEEMMPENFCVKGLELFSLFLFRDILELYDWNLKGPLFEDSPPCCPRFHFMPRFVRFLPDGGKEVLSMHQILLYLLRCSKALVPEEEIANMLQWEELEWQKYAEECKGMIVTNPGTKPSSVRIDQLDREQFNPDVITFPIIVHFGIRPAQLSYAGDPQYQKLWKSYVKLRHLLANSPKVKQTDKQKLAQREEALQKIRQKNTMRREVTVELSSQGFWKTGIRSDVCQHAMMLPVLTHHIRYHQCLMHLDKLIGYTFQDRCLLQLAMTHPSHHLNFGMNPDHARNSLSNCGIRQPKYGDRKVHHMHMRKKGINTLINIMSRLGQDDPTPSRINHNERLEFLGDAVVEFLTSVHLYYLFPSLEEGGLATYRTAIVQNQHLAMLAKKLELDRFMLYAHGPDLCRESDLRHAMANCFEALIGAVYLEGSLEEAKQLFGRLLFNDPDLREVWLNYPLHPLQLQEPNTDRQLIETSPVLQKLTEFEEAIGVIFTHVRLLARAFTLRTVGFNHLTLGHNQRMEFLGDSIMQLVATEYLFIHFPDHHEGHLTLLRSSLVNNRTQAKVAEELGMQEYAITNDKTKRPVALRTKTLADLLESFIAALYIDKDLEYVHTFMNVCFFPRLKEFILNQDWNDPKSQLQQCCLTLRTEGKEPDIPLYKTLQTVGPSHARTYTVAVYFKGERIGCGKGPSIQQAEMGAAMDALEKYNFPQMAHQKRFIERKYRQELKEMRWEREHQEREPDETEDIKK"}}, "biological_target": "HA-tagged full-size GAM (GAM/ZFp/ZNF512B) (human) (UniProt Q96KM6)", "sequence (Q96KM6 whole entry)": "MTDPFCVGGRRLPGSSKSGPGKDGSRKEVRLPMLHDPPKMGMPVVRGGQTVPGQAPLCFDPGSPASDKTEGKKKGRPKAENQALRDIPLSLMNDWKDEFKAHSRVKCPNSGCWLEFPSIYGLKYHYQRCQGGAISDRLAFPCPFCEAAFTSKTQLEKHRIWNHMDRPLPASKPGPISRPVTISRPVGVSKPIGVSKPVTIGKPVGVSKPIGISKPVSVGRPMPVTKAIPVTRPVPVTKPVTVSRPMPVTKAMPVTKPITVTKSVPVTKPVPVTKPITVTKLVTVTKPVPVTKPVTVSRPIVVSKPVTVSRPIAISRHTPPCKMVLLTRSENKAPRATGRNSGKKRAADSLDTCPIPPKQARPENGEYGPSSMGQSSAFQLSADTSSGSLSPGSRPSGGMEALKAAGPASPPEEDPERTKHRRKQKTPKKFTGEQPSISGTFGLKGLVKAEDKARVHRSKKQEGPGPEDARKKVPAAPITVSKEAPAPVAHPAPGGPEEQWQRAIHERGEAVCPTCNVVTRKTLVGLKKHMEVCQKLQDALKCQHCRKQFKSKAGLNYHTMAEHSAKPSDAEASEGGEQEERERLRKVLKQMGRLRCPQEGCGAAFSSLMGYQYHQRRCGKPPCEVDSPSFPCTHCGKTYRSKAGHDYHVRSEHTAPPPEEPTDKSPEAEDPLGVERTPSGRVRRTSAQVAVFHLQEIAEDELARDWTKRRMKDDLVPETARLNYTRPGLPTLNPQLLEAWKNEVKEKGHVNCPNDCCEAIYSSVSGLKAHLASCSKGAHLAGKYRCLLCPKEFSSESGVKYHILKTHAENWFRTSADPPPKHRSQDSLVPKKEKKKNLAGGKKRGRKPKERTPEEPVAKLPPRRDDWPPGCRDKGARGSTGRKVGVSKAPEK", "assay": "co-IP"}
{"binder": "B1", "values": [{"measurement": "reduction of co-precipitated Drosha after RNase A pre-treatment of the extract", "value": 50, "unit": "%"}]}
